What all share (experiment): cell_activity; HEK293, two sites flanking CMVmini
What all share (conditions): tags: EYFP-2A upstream, SV40 NLS

For data set [1], the target named is T1, TALER17 (synthetic, UniProt B2SU53 SEQ:1-1010).
T1 chain: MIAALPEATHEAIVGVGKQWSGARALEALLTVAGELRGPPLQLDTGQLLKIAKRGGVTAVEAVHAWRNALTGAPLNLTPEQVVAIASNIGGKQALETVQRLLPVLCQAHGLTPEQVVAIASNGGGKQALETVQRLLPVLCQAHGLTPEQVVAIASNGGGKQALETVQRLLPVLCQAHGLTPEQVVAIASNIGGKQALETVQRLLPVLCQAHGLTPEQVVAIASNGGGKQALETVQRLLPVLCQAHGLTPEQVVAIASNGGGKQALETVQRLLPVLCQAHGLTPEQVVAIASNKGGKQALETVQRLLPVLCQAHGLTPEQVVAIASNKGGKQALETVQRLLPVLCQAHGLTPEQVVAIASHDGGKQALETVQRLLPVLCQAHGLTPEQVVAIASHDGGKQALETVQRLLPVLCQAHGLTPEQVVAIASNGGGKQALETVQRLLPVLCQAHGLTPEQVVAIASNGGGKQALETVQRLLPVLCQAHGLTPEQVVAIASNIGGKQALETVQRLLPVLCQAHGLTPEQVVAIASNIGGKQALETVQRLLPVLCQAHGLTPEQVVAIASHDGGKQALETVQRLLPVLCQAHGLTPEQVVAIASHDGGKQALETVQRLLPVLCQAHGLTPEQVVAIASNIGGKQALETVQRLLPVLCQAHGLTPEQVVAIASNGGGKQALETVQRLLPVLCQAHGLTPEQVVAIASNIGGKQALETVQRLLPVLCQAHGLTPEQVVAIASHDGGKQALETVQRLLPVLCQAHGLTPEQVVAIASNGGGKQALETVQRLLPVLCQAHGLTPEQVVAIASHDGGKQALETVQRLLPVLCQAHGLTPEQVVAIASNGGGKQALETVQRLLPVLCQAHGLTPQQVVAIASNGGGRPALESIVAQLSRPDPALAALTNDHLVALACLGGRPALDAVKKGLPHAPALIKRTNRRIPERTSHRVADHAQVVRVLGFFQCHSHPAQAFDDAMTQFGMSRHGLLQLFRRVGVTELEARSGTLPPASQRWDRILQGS

Data set [2] addresses T2, TALER15 (synthetic, UniProt B2SU53 SEQ:1-1010).
T2 chain: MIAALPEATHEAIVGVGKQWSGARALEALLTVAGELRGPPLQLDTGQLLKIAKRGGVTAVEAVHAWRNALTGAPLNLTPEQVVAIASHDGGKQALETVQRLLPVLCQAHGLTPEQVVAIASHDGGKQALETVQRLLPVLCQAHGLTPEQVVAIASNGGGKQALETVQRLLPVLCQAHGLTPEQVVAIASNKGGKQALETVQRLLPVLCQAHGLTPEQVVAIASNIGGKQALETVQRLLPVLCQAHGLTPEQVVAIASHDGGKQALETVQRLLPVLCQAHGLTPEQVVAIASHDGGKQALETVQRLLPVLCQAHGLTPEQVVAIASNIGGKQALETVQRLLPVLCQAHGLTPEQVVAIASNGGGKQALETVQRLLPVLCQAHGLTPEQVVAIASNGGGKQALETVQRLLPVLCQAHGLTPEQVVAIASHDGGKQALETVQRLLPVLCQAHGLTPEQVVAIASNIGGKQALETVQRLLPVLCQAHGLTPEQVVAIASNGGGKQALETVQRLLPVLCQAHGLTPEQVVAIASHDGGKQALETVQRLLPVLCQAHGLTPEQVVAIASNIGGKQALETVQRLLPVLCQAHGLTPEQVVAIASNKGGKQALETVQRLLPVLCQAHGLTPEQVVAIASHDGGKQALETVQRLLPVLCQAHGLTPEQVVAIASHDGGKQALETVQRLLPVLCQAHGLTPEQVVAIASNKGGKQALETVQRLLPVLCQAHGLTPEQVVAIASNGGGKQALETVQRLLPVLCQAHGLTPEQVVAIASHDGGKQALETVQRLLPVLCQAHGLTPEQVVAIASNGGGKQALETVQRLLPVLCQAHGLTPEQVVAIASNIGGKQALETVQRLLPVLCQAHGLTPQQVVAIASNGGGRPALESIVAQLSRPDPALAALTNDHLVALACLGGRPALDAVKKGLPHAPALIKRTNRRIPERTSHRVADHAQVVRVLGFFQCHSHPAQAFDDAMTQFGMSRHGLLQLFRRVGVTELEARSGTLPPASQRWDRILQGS

In data set [3] the target is T3, TALER18 (synthetic, UniProt B2SU53 SEQ:1-1010).
T3 chain: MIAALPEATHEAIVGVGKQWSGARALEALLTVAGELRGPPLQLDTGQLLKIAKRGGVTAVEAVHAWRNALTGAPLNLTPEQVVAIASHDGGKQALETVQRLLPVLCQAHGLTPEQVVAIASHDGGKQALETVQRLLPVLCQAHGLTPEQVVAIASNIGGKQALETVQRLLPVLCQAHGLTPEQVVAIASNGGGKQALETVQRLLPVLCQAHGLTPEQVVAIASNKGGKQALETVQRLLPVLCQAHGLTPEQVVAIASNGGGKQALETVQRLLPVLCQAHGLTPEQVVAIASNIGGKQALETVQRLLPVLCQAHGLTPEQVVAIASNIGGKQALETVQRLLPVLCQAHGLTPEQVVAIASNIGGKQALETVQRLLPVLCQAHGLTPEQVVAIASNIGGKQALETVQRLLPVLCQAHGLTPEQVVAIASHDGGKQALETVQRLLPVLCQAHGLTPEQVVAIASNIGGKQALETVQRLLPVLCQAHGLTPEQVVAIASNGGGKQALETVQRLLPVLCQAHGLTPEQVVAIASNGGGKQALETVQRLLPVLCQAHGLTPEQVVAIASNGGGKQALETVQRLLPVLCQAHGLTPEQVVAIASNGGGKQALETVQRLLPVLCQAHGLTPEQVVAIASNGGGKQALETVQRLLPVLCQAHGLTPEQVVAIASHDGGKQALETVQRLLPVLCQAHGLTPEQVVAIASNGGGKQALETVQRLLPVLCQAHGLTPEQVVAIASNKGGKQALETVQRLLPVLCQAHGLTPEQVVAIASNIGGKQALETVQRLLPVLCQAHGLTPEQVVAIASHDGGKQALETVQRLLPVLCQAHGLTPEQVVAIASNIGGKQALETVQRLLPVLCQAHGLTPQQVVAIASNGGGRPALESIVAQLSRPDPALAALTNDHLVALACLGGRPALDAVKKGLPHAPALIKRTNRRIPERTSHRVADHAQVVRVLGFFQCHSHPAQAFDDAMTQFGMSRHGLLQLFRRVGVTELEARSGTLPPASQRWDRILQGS

For data set [4], the target named is T4, TALER20 (synthetic, UniProt B2SU53 SEQ:1-1010).
T4 chain: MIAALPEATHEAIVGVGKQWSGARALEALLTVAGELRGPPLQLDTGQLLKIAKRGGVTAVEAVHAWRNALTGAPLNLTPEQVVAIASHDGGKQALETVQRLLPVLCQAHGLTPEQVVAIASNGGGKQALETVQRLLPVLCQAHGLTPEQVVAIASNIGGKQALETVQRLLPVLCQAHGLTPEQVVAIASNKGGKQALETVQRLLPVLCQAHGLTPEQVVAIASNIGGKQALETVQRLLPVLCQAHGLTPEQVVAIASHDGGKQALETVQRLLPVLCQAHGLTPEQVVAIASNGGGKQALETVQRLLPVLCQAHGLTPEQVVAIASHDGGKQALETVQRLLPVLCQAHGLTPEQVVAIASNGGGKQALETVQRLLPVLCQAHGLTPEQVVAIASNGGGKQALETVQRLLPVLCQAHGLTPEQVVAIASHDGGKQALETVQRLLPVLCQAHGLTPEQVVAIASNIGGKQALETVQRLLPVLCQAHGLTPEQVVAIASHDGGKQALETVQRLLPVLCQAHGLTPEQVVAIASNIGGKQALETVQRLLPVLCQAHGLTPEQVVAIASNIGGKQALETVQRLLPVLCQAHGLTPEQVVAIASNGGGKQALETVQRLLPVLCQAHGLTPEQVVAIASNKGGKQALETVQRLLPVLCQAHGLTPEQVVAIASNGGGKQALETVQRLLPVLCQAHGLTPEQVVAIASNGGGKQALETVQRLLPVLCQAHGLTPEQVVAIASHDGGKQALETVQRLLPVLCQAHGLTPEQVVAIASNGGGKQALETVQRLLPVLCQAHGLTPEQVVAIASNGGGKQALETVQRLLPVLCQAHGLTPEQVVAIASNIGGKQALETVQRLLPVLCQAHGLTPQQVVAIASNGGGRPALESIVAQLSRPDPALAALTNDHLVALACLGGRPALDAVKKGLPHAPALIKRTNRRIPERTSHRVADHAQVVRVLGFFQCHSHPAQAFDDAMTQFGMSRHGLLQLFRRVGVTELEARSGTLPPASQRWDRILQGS

Data set [5] has as its target T5, TALER12 (synthetic, UniProt Q56830 SEQ:262-1344).
T5 chain: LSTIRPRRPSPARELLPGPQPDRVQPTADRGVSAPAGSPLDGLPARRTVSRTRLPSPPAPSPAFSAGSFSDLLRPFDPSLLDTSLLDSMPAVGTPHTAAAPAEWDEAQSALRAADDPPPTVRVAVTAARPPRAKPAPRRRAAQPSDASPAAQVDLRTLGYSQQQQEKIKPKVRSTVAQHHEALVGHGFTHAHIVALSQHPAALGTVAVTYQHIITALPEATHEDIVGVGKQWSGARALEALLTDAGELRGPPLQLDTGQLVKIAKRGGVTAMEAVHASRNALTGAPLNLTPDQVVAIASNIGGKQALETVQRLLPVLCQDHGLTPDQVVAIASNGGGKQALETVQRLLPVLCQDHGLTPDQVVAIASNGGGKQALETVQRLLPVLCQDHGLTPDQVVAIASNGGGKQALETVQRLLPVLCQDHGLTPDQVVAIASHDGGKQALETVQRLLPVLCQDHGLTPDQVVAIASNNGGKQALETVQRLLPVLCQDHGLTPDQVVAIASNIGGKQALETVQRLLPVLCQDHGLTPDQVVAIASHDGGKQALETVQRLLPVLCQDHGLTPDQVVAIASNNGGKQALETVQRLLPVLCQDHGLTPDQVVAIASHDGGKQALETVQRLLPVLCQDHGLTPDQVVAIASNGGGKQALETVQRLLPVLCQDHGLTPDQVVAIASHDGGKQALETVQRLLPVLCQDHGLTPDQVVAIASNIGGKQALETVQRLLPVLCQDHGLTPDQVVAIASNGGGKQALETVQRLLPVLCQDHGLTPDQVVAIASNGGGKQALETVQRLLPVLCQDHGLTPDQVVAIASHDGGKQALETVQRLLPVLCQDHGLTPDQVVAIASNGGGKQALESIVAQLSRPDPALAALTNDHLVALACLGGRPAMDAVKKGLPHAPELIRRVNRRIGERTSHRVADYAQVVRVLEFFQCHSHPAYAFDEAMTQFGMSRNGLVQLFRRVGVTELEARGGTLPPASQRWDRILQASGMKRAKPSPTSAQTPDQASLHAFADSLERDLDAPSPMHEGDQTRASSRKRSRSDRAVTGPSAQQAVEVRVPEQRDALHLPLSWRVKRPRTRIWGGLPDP

B1: T17 site (dsDNA)
DNA 1: TATTATTGGCCTTAACCATACTCTT
DNA 2: AAGAGTATGGTTAAGGCCAATAATA
Consider B1, for which, in data set [1], the binding signal turned out to be 195 fold repression.

B2: T15 site (dsDNA)
DNA 1: TCCTGACCATTCATCAGCCGTCTAT
DNA 2: ATAGACGGCTGATGAATGGTCAGGA
For B2, in data set [2], the binding signal was found to be 13.7 fold repression.

B3: T18 site (dsDNA)
DNA 1: TCCATGTAAAACATTTTTCTGACAT
DNA 2: ATGTCAGAAAAATGTTTTACATGGA
For B3, in data set [3], the binding signal was 18.5 fold repression.

B4: T20 site (dsDNA)
DNA 1: TCTAGACTCTTCACAATGTTCTTAT
DNA 2: ATAAGAACATTGTGAAGAGTCTAGA
B4 displayed a binding signal in data set [4] of 12.3 fold repression.

B5: T12 site (dsDNA)
DNA 1: TATTTCGACGCTCATTCT
DNA 2: AGAATGAGCGTCGAAATA
Consider B5, for which the binding signal in data set [5] was determined as 1220 fold repression.

These data come from patent US20200071711, “MODULAR CONSTRUCTION OF SYNTHETIC GENE CIRCUITS IN MAMMALIAN CELLS USING MATHEMATICAL MODELING OF CLOSED LOOP TRANSCRIPTIONAL REPRESSORS” (Tsinghua University, published 2020).
